Experimental data from patent US20210395742.

Key:
Test in all cases: EMSA
[1] = test system: Mouse IgG2a (Mus musculus); conditions: T = 5-ethynyldeoxyuridine clicked with sulfo-HSAB (NHS ester), covalent binding fraction
[2] = test system: Mouse IgG1 monoclonal antibody (including anti-streptavidin) (Mus musculus); conditions: T = 5-ethynyldeoxyuridine clicked with sulfo-HSAB (NHS ester); for EC50: half-maximal covalent binding (estimate), Kd not determinable; for binding signal (% bound fraction): maximum covalent binding fraction
[3] = test system: Mouse IgG2b (Mus musculus); conditions: T = 5-ethynyldeoxyuridine clicked with sulfo-HSAB (NHS ester), covalent binding fraction
[4] = core of consensus SEQ:22, flanks not given
[5] = core of consensus SEQ:23, flanks not given

Q: Which binding signal (% bound fraction) [1, 4] does the source give for AGCGCGGAACCGTGCCTGGC [Fc clone 1] here?
A: 40

Q: And the EC50 ([2]; core of consensus SEQ:22, flanks not given, Cu(II) dependent)?
A: < 10 nM

Q: And the binding signal (% bound fraction) [2, 4]?
A: 40

Q: What about the binding signal (% bound fraction) [3, 4] of the same sequence?
A: 10

Q: What does the source list for TAACGCARTAAGCGAG [Fc clone 2]?
A: binding signal (% bound fraction) [1, 5]: 20; EC50 [2, 5]: < 10 nM; binding signal (% bound fraction) [2, 5]: 20; binding signal (% bound fraction) [3, 5]: 2
